Experimental data from the Human Domainome abundance scans (Beltran et al. 2025).

B1: Mineralocorticoid receptor, residues 600 to 675; numbered along this chain, P08235 (parent)
chain: SKICLVCGDEASGCHYGVVTCGSCKVFFKRAVEGQHNYLCAGRNDCIIDKIRRKNCPACRLQKCLQAGMNLGARKS
B2: Ankyrin repeat and SAM domain-containing protein 6, residues 774 to 836; numbered along this chain, Q68DC2 (parent)
chain: DEDELTGILKKLSLEKYQPIFEEQEVDMEAFLTLTDGDLKELGIKTDGSRQQILAAISELNAG

Variants of: B1
Assay: abundance fitness (aPCA) (normalised: wild type 0, dead -1); higher = more abundant; growth selection in yeast, the domain comes from the species named
Conditions: Homo sapiens

Abundance fitness: each site, then its substitutions
G68: V -0.518, Q -0.153, W -0.447, T -0.423, S -0.222, A -0.382, L -0.484, F -0.77, D -0.164, E -0.146, H -0.381, M -0.211, P -0.451, N -0.152, R -0.172, I -0.266, K -0.217
Q66: Y -0.094
G72: Q 0.053, Y -0.074, H 0.032, V 0.012, P 0.011, E -0.036, W -0.124, I -0.02, K -0.048, M -0.042, D 0.029, T -0.115, R -0.065, L -0.021, C 0, S -0.009, F -0.134
M69: Q -0.262, R -0.421, N -0.523, T -0.353, F -0.239, S -0.341, G -0.235, H -0.617, D -0.293, A -0.058, C -0.128, W -0.427, E -0.307, Y -0.493, K -0.261
A67: N -0.084, L -0.002, W -0.055, F -0.121, D -0.653, R -0.053, Q -0.17, M 0.055, I -0.076, Y -0.264, E 0.092, K -0.144, G -0.076, H -0.026, C -0.03
R74: V 0.026, G -0.022, Q -0.079, W 0, N -0.011, M -0.015, D -0.003, T 0.138, P -0.03, E 0.056, Y -0.031, A 0.027, C 0.005, I -0.042, K 0.02, S -0.001, L -0.061, F -0.088
S76: T 0.01, F -0.119, P 0.007, G -0.076, W 0.122, M -0.084, L -0.012, V -0.173, Y -0.075, H -0.051, I -0.198, Q -0.096, R -0.116, N -0.071, E -0.044, D -0.031, C -0.128, K -0.654
N70: R -0.014, M -0.044, C -0.154, F -0.07, L -0.089, V -0.011, D 0.014, G -0.082, Q -0.019, S 0.034, W -0.087, T -0.04, Y -0.009, E -0.035, H -0.031, K 0.058, P -0.021, I -0.02
K75: I -0.213, V 0.034, A 0.059, C -0.038, E 0.055, S 0.065, W -0.007, Y -0.051, Q 0.05, D -0.057, N -0.092, G -0.024, H 0.077, T 0.014, M -0.025, L -0.056, F -0.167, P 0.011

Variants of: B2
Assay: as above
Conditions: Homo sapiens

Abundance fitness of substitutions, site by site:
D1: I 0.158, Y 0.031, S 0.045, M 0.351, W -0.363, T 0.007, N 0.113, A -0.023, F -0.312, L 0.223, G -0.039, E -0.103, Q 0.002
D3: C 0.057, A -0.157
E2: A -0.029, F 0.287, G -0.158, Y 0.063, L 0.288, P 0.112, C 0.142, N 0.047, M 0.565, R 0.081, V -0.234, W 0.143, H 0.248, Q 0.11, T 0.361
